The source of these data is patent publication US20070259336A1.

Test [1] addresses serum 15, head and neck cancer patient (Table 1) (human). Description: 5 ug MBP competitor preincubated with serum 15, then IP of Ruc-p53.
For test [2], the target named is serum 33, colon cancer patient (Table 1) (human). Description: 5 ug MBP competitor preincubated with serum 33, then IP of Ruc-p53.
The target in test [3] is serum 24, breast cancer patient (Table 1) (human). As to the kind of experiment: 5 ug MBP competitor preincubated with serum 24, then IP of Ruc-β-catenin-Δ1.
In test [4] the target is serum 32, colon cancer patient (Table 1) (human). As to the kind of experiment: 5 ug MBP competitor preincubated with serum 32, then IP of Ruc-K-Ras.
Test [5] concerns the target serum 36, colon cancer patient (Table 1) (human). Description: 5 ug MBP competitor preincubated with serum 36, then IP of Ruc-Smad4.
For test [6], the target named is serum 25, breast cancer patient (Table 1) (human). As to the kind of experiment: 5 ug MBP competitor preincubated with serum 25, then IP of Ruc-c-Myc.
Test [7] has as its target serum 27, breast cancer patient (Table 1) (human). Description: 5 ug MBP competitor preincubated with serum 27, then IP of Ruc-K-Ras.
Test [8] deals with serum 34, colon cancer patient (Table 1) (human). As to the kind of experiment: 5 ug MBP competitor preincubated with serum 34, then IP of Ruc-K-Ras.
The target in test [9] is serum 12, head and neck cancer patient (Table 1) (human). Description: 5 ug MBP competitor preincubated with serum 12, then IP of Ruc-p53.
The target in test [10] is serum 34, colon cancer patient (Table 1) (human). Description: 5 ug MBP competitor preincubated with serum 34, then IP of Ruc-p53.
For test [11], the target named is serum 35, colon cancer patient (Table 1) (human). Description: 5 ug MBP competitor preincubated with serum 35, then IP of Ruc-K-Ras.
Test [12] addresses serum 22, breast cancer patient (Table 1) (human). Description: 5 ug MBP competitor preincubated with serum 22, then IP of Ruc-Smad4.

B1: MBP fusion containing the SPEC2 cDNA (protein, UniProt Q9NRR3 1-84, looked up, not shown: large carriers)
chain: MSEFWLCFNCCIAEQPQPKRRRRIDRSMIGEPTNFVHTAHVGSGDLFSGMNSVSSIQNQMQSKGGYGGGMPANVQMQLVDTKAG
On to B1, for which the percent competition in test [1] turned out to be 20%; in test [2] it was 7%; in test [3] it was 23%; in [4], 25%; in test [5], 0%; in [6], 0%. For the same molecule, the percent competition in test [7] was 5%; in test [8] it was 4%; in test [9], 21%; in [10], 11%; in test [11], 16%; in test [12], 4%.
